Measurements: the supplement of paper PMC9112550, “Optimization of the antimicrobial peptide Bac7 by deep mutational scanning” (BMC Biology, 2022)

System: Escherichia coli TOP10
Experiment: shrunken log2 fold change of peptide-encoding DNA abundance (4.5 h post-induction vs induction); higher = less antimicrobial activity (less host growth inhibition)
Conditions: time post-induction: 4.5 h; library: site-saturation at positions 5, 18, 19, 20
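Note: peptides expressed intracellularly from a pBAD plasmid library in pooled LB shake-flask culture, induced with 0.3% L-arabinose, DNA abundance read by NGS, three biological replicates, DESeq2 with apeglm shrinkage.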

Sequence	shrunken log2 fold change
RRIRQRPPRLPRPRPRPVDQPRP	0.0619
RRIRQRPPRLPRPRPRPVFAPRP	0.164
RRIRQRPPRLPRPRPRPVFFPRP	0.0102
RRIRQRPPRLPRPRPRPVHCPRP	-0.166
RRIRQRPPRLPRPRPRPVISPRP	0.0289
RRIRQRPPRLPRPRPRPVNLPRP	-0.014
RRIRQRPPRLPRPRPRPVNTPRP	-0.0633
RRIRQRPPRLPRPRPRPVPMPRP	0.132
RRIRQRPPRLPRPRPRPVRQPRP	0.0135
RRIRQRPPRLPRPRPRPVRVPRP	0.686
RRIRQRPPRLPRPRPRPVSKPRP	-0.014
RRIRQRPPRLPRPRPRPVSWPRP	1.47
RRIRQRPPRLPRPRPRPVTGPRP	0.0279
RRIRQRPPRLPRPRPRPVWPPRP	0.303
RRIRQRPPRLPRPRPRPVYGPRP	-0.258
RRIRQRPPRLPRPRPRPWACPRP	-0.0783
RRIRQRPPRLPRPRPRPWAMPRP	-0.0161
RRIRQRPPRLPRPRPRPWAWPRP	-0.0707
RRIRQRPPRLPRPRPRPWCLPRP	-0.275
RRIRQRPPRLPRPRPRPWDPPRP	-0.327
RRIRQRPPRLPRPRPRPWFEPRP	-0.00226
RRIRQRPPRLPRPRPRPWGYPRP	-0.166
RRIRQRPPRLPRPRPRPWIFPRP	-0.0561
RRIRQRPPRLPRPRPRPWIYPRP	0.0039
RRIRQRPPRLPRPRPRPWKFPRP	0.0543

Sequence	shrunken log2 fold change
RRIRQRPPRLPRPRPRPWLTPRP	-0.13
RRIRQRPPRLPRPRPRPWLVPRP	-0.0624
RRIRQRPPRLPRPRPRPWLYPRP	-0.0636
RRIRQRPPRLPRPRPRPWMFPRP	-0.374
RRIRQRPPRLPRPRPRPWMQPRP	-0.062
RRIRQRPPRLPRPRPRPWMVPRP	-0.0803
RRIRQRPPRLPRPRPRPWNHPRP	-0.0081
RRIRQRPPRLPRPRPRPWNQPRP	-0.0236
RRIRQRPPRLPRPRPRPWQHPRP	-0.0358
RRIRQRPPRLPRPRPRPWQPPRP	-0.00999
RRIRQRPPRLPRPRPRPWRWPRP	-0.0392
RRIRQRPPRLPRPRPRPWTFPRP	-0.0125
RRIRQRPPRLPRPRPRPWTKPRP	-0.00887
RRIRQRPPRLPRPRPRPWTNPRP	-0.00183
RRIRQRPPRLPRPRPRPWTSPRP	0.0602
RRIRQRPPRLPRPRPRPWWNPRP	-0.123
RRIRQRPPRLPRPRPRPWWRPRP	0.0847
RRIRQRPPRLPRPRPRPWYHPRP	-0.32
RRIRQRPPRLPRPRPRPYDQPRP	0.0352
RRIRQRPPRLPRPRPRPYEAPRP	-0.0514
RRIRQRPPRLPRPRPRPYGKPRP	-0.217
RRIRQRPPRLPRPRPRPYGMPRP	-0.549
RRIRQRPPRLPRPRPRPYHEPRP	-0.288
RRIRQRPPRLPRPRPRPYIVPRP	0.04
RRIRQRPPRLPRPRPRPYKIPRP	-0.568

Sequence	shrunken log2 fold change
RRIRQRPPRLPRPRPRPYKQPRP	0.0225
RRIRQRPPRLPRPRPRPYMMPRP	0.00408
RRIRQRPPRLPRPRPRPYMTPRP	-0.122
RRIRQRPPRLPRPRPRPYNLPRP	-0.00751
RRIRQRPPRLPRPRPRPYPAPRP	-0.289
RRIRQRPPRLPRPRPRPYPFPRP	-0.035
RRIRQRPPRLPRPRPRPYPIPRP	-0.00931
RRIRQRPPRLPRPRPRPYQMPRP	-0.00133
RRIRQRPPRLPRPRPRPYREPRP	-0.0135
RRIRQRPPRLPRPRPRPYRNPRP	-0.0521
RRIRQRPPRLPRPRPRPYSAPRP	-0.00273
RRIRQRPPRLPRPRPRPYTPPRP	-0.856
RRIRQRPPRLPRPRPRPYWFPRP	0.00499
RRIRQRPPRLPRPRPRPYWPPRP	-0.11
RRIRQRPPRLPRPRPRPYYLPRP	-0.253
RRIRQRPPRLPRPRPRPYYNPRP	-0.392
RRIRRRPPRLPRPRPRPAAEPRP	0.845
RRIRRRPPRLPRPRPRPACCPRP	0.714
RRIRRRPPRLPRPRPRPAEFPRP	0.0257
RRIRRRPPRLPRPRPRPAEQPRP	0.275
RRIRRRPPRLPRPRPRPAETPRP	-0.0645
RRIRRRPPRLPRPRPRPAEWPRP	0.136
RRIRRRPPRLPRPRPRPAEYPRP	0.0756
RRIRRRPPRLPRPRPRPAFDPRP	0.522
RRIRRRPPRLPRPRPRPAFFPRP	0.58

Sequence	shrunken log2 fold change
RRIRRRPPRLPRPRPRPAFIPRP	0.115
RRIRRRPPRLPRPRPRPAGCPRP	0.437
RRIRRRPPRLPRPRPRPAKAPRP	0.12
RRIRRRPPRLPRPRPRPAKEPRP	0.0389
RRIRRRPPRLPRPRPRPAKVPRP	0.0346
RRIRRRPPRLPRPRPRPALVPRP	0.74
RRIRRRPPRLPRPRPRPAMNPRP	0.0496
RRIRRRPPRLPRPRPRPAMQPRP	0.423
RRIRRRPPRLPRPRPRPAPAPRP	1.1
RRIRRRPPRLPRPRPRPAPKPRP	0.905
RRIRRRPPRLPRPRPRPARDPRP	0.185
RRIRRRPPRLPRPRPRPARFPRP	0.709
RRIRRRPPRLPRPRPRPARNPRP	3.18
RRIRRRPPRLPRPRPRPARTPRP	0.35
RRIRRRPPRLPRPRPRPARWPRP	1.13
RRIRRRPPRLPRPRPRPASMPRP	0.0911
RRIRRRPPRLPRPRPRPASYPRP	-0.111
RRIRRRPPRLPRPRPRPATYPRP	-0.0435
RRIRRRPPRLPRPRPRPAVCPRP	0.66
RRIRRRPPRLPRPRPRPAVFPRP	0.45
RRIRRRPPRLPRPRPRPAWMPRP	0.24
RRIRRRPPRLPRPRPRPAYEPRP	0.138
RRIRRRPPRLPRPRPRPAYWPRP	0.135
RRIRRRPPRLPRPRPRPCAIPRP	3.08
RRIRRRPPRLPRPRPRPCCAPRP	0.372

Sequence	shrunken log2 fold change
RRIRRRPPRLPRPRPRPCDHPRP	0.0118
RRIRRRPPRLPRPRPRPCDWPRP	0.156
RRIRRRPPRLPRPRPRPCEHPRP	-0.212
RRIRRRPPRLPRPRPRPCEPPRP	-0.0751
RRIRRRPPRLPRPRPRPCGSPRP	0.0143
RRIRRRPPRLPRPRPRPCHDPRP	-0.105
RRIRRRPPRLPRPRPRPCKHPRP	0.00883
RRIRRRPPRLPRPRPRPCLLPRP	-0.335
RRIRRRPPRLPRPRPRPCLNPRP	-0.4
RRIRRRPPRLPRPRPRPCMFPRP	-0.0745
RRIRRRPPRLPRPRPRPCMRPRP	0.264
RRIRRRPPRLPRPRPRPCNDPRP	-0.0872
RRIRRRPPRLPRPRPRPCNIPRP	-0.373
RRIRRRPPRLPRPRPRPCQVPRP	0.0476
RRIRRRPPRLPRPRPRPCRAPRP	0.182
RRIRRRPPRLPRPRPRPCSNPRP	-0.166
RRIRRRPPRLPRPRPRPCSTPRP	0.0875
RRIRRRPPRLPRPRPRPCTKPRP	-0.147
RRIRRRPPRLPRPRPRPCTQPRP	0.207
RRIRRRPPRLPRPRPRPCTRPRP	0.0341
RRIRRRPPRLPRPRPRPCTSPRP	0.0211
RRIRRRPPRLPRPRPRPCVWPRP	0.999
RRIRRRPPRLPRPRPRPCYKPRP	-0.202
RRIRRRPPRLPRPRPRPCYLPRP	-0.499
RRIRRRPPRLPRPRPRPDAAPRP	1.44

Sequence	shrunken log2 fold change
RRIRRRPPRLPRPRPRPDAEPRP	1.62
RRIRRRPPRLPRPRPRPDATPRP	1.32
RRIRRRPPRLPRPRPRPDDQPRP	0.167
RRIRRRPPRLPRPRPRPDGKPRP	0.0432
RRIRRRPPRLPRPRPRPDGMPRP	0.0388
RRIRRRPPRLPRPRPRPDHAPRP	0.0467
RRIRRRPPRLPRPRPRPDHVPRP	0.101
RRIRRRPPRLPRPRPRPDIGPRP	-0.0303
RRIRRRPPRLPRPRPRPDIWPRP	0.418
RRIRRRPPRLPRPRPRPDKEPRP	0.0257
RRIRRRPPRLPRPRPRPDKGPRP	-0.0101
RRIRRRPPRLPRPRPRPDLFPRP	0.41
RRIRRRPPRLPRPRPRPDLKPRP	0.162
RRIRRRPPRLPRPRPRPDMSPRP	-0.433
RRIRRRPPRLPRPRPRPDPFPRP	0.1
RRIRRRPPRLPRPRPRPDPIPRP	0.227
RRIRRRPPRLPRPRPRPDQRPRP	-0.0913
RRIRRRPPRLPRPRPRPDQTPRP	0.0174
RRIRRRPPRLPRPRPRPDRGPRP	-0.216
RRIRRRPPRLPRPRPRPDSEPRP	0.036
RRIRRRPPRLPRPRPRPDSQPRP	0.157
RRIRRRPPRLPRPRPRPDWMPRP	0.0919
RRIRRRPPRLPRPRPRPDYMPRP	-0.384
RRIRRRPPRLPRPRPRPEACPRP	0.463
RRIRRRPPRLPRPRPRPEANPRP	0.78
